Measured values reported in patent US20160120951A1 (ZEALAND PHARMA A S, published 2016).
Numbered stars: 1 amine (or outer) side, 2 acyl side, 3 side chain; on linkers, the order of the positions; unused ones are H or OH. Square brackets hold non-standard residues; d marks the D form. Side chains are listed from the residue outwards. * marks the point of attachment. γGlu = O=C(O)[C@H](CCC(=O)[*:2])N[*:1]; Palmitoyl = CCCCCCCCCCCCCCCC(=O)*; Aib = CC(C)(N)C(=O)O

How the values were obtained:
[1] = molecular target: human glucagon receptor (Glucagon-R) (human, UniProt P47871 26-477); test: cell-based or functional assay
[2] = molecular target: human glucagon-like peptide 1 receptor (GLP-1R) (human, UniProt P43220 24-463); test: cell-based or functional assay
Sequence of human glucagon-like peptide 1 receptor (GLP-1R) (P43220 24-463): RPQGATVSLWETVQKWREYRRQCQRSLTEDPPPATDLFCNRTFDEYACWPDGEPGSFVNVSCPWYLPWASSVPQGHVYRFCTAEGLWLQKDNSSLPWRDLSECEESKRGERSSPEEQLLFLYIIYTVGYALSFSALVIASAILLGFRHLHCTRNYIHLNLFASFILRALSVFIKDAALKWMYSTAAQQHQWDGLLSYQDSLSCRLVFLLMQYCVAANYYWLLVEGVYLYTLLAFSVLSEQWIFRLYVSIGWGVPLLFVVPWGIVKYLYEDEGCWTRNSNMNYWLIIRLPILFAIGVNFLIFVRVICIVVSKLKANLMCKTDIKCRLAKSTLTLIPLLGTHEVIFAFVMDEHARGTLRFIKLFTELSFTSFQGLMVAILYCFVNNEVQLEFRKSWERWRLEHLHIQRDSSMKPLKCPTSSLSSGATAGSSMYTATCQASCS

B1: Compound 12 (peptide)
peptide: H-H[Aib]QGTFTSDYSKYLDSKAAHDFVEWLLK([γGlu-Palmitoyl])A-NH2
SMILES: CCCCCCCCCCCCCCCC(=O)N[C@@H](CCC(=O)NCCCC[C@H](NC(=O)[C@H](CC(C)C)NC(=O)[C@H](CC(C)C)NC(=O)[C@H](Cc1c[nH]c2ccccc12)NC(=O)[C@H](CCC(=O)O)NC(=O)[C@@H](NC(=O)[C@H](Cc1ccccc1)NC(=O)[C@H](CC(=O)O)NC(=O)[C@H](Cc1c[nH]cn1)NC(=O)[C@H](C)NC(=O)[C@H](C)NC(=O)[C@H](CCCCN)NC(=O)[C@H](CO)NC(=O)[C@H](CC(=O)O)NC(=O)[C@H](CC(C)C)NC(=O)[C@H](Cc1ccc(O)cc1)NC(=O)[C@H](CCCCN)NC(=O)[C@H](CO)NC(=O)[C@H](Cc1ccc(O)cc1)NC(=O)[C@H](CC(=O)O)NC(=O)[C@H](CO)NC(=O)[C@@H](NC(=O)[C@H](Cc1ccccc1)NC(=O)[C@@H](NC(=O)CNC(=O)[C@H](CCC(N)=O)NC(=O)C(C)(C)NC(=O)[C@@H](N)Cc1c[nH]cn1)[C@@H](C)O)[C@@H](C)O)C(C)C)C(=O)N[C@@H](C)C(N)=O)C(=O)O
EC50 (nM) GluR, cAMP formation [1]: 0.27 nM
EC50 (nM) GLP-1R, cAMP formation [2]: 0.27 nM

B2: Compound 9 (peptide)
peptide: H-H[Aib]QGTFTSDYSKYLDSK([γGlu-Palmitoyl])AARDFVAWLLRA-NH2
SMILES: CCCCCCCCCCCCCCCC(=O)N[C@@H](CCC(=O)NCCCC[C@H](NC(=O)[C@H](CO)NC(=O)[C@H](CC(=O)O)NC(=O)[C@H](CC(C)C)NC(=O)[C@H](Cc1ccc(O)cc1)NC(=O)[C@H](CCCCN)NC(=O)[C@H](CO)NC(=O)[C@H](Cc1ccc(O)cc1)NC(=O)[C@H](CC(=O)O)NC(=O)[C@H](CO)NC(=O)[C@@H](NC(=O)[C@H](Cc1ccccc1)NC(=O)[C@@H](NC(=O)CNC(=O)[C@H](CCC(N)=O)NC(=O)C(C)(C)NC(=O)[C@@H](N)Cc1c[nH]cn1)[C@@H](C)O)[C@@H](C)O)C(=O)N[C@@H](C)C(=O)N[C@@H](C)C(=O)N[C@@H](CCCNC(=N)N)C(=O)N[C@@H](CC(=O)O)C(=O)N[C@@H](Cc1ccccc1)C(=O)N[C@H](C(=O)N[C@@H](C)C(=O)N[C@@H](Cc1c[nH]c2ccccc12)C(=O)N[C@@H](CC(C)C)C(=O)N[C@@H](CC(C)C)C(=O)N[C@@H](CCCNC(=N)N)C(=O)N[C@@H](C)C(N)=O)C(C)C)C(=O)O
EC50 (nM) GluR, cAMP formation [1]: 0.17 nM
EC50 (nM) GLP-1R, cAMP formation [2]: 0.12 nM

B3: Compound 10 (peptide)
peptide: H-H[Aib]QGTFTSDYSKYLDSKAAK([γGlu-Palmitoyl])DFVAWLLRA-NH2
SMILES: CCCCCCCCCCCCCCCC(=O)N[C@@H](CCC(=O)NCCCC[C@H](NC(=O)[C@H](C)NC(=O)[C@H](C)NC(=O)[C@H](CCCCN)NC(=O)[C@H](CO)NC(=O)[C@H](CC(=O)O)NC(=O)[C@H](CC(C)C)NC(=O)[C@H](Cc1ccc(O)cc1)NC(=O)[C@H](CCCCN)NC(=O)[C@H](CO)NC(=O)[C@H](Cc1ccc(O)cc1)NC(=O)[C@H](CC(=O)O)NC(=O)[C@H](CO)NC(=O)[C@@H](NC(=O)[C@H](Cc1ccccc1)NC(=O)[C@@H](NC(=O)CNC(=O)[C@H](CCC(N)=O)NC(=O)C(C)(C)NC(=O)[C@@H](N)Cc1c[nH]cn1)[C@@H](C)O)[C@@H](C)O)C(=O)N[C@@H](CC(=O)O)C(=O)N[C@@H](Cc1ccccc1)C(=O)N[C@H](C(=O)N[C@@H](C)C(=O)N[C@@H](Cc1c[nH]c2ccccc12)C(=O)N[C@@H](CC(C)C)C(=O)N[C@@H](CC(C)C)C(=O)N[C@@H](CCCNC(=N)N)C(=O)N[C@@H](C)C(N)=O)C(C)C)C(=O)O
EC50 (nM) GluR, cAMP formation [1]: 0.63 nM
EC50 (nM) GLP-1R, cAMP formation [2]: 0.15 nM
